Measured values taken from the RNAGym collection of RNA variant scans (doi:10.1073/pnas.2313332121).
Fewer inactive variants are shown than the library holds.

B1: TPR 5TU (parent)
chain: GGAUCUUCUCGAUCUAACAAAAAAGACAAAUCUGCCACAAAGCUUGAGAGCAUCUUCGGAUGCAGAGGCGGCAGCCUUCGGUGGCGCGAUAGCGCCAACGUUCUCAACUAUGACACGCAAAACGCGUGCUCCGUUGAAUGGAGUUUAUCAUG

Variants of: B1
Test: polymerase ribozyme fitness, log enrichment relative to wild type (log ratio); higher = more active; in vitro selection for triplet polymerase activity
How it was run: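 PCR was used to build mutant libraries for each subunit of a heterodimeric triplet polymerase ribozyme, which were then transcribed. A single in vitro selection round, in triplicate, used a frozen incubation at −7 °C and recovered extended constructs by gel excision, streptavidin beads and RT-PCR. Fitness is the logarithm of genotype enrichment relative to wild-type enrichment, averaged over replicates with inverse-variance weights. The logarithm is base 2, and after Illumina sequencing only genotypes with ≥10 input reads and ≥1 read per output were kept.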

Row | Variant | polymerase ribozyme fitness (log ratio)
1 | C36U A64G G94A A110G | -4.2
2 | C18U G84A | -0.579
3 | G84U C95G A122U G152C | -3.55
4 | U13A A41G C85G A147G | -2.67
5 | U56A C63U A64U G84A G128A | ≤ -4.2
6 | A41U A52G A107U G140U C149A | ≤ -4.2
7 | A73G U78A C116A A138G | ≤ -4.2
8 | G68U C129U | ≤ -4.2
9 | A47U G83U A122U | -0.574
10 | C8A C14G U55A C85U G88U A138U | ≤ -4.2
11 | C57U C96U C103U G117U G136A G141U | ≤ -4.2
12 | C14A G34A A40C U55G C87G C114G G117U A121C U139A | ≤ -4.2
13 | A49G C51A U53C C87G | ≤ -4.2
14 | G83A A150C | -3.77
15 | C54U G92A | -3
16 | C57A A73U G84A U135A | -2.22
17 | G48C C85U | -1.95
18 | C51U G62C G70A A115U C116A | ≤ -4.2
19 | U9G G68C G83A G84A C149U | ≤ -4.2
20 | U56G G59A G81U A89C G92U U139A | ≤ -4.2
21 | C38U A41C C132U | -1.49

Row | Variant | polymerase ribozyme fitness (log ratio)
22 | A20G G46A U146A | -1.3
23 | G11U U104G | -1.58
24 | A23C G67A A73U C96U G140C | ≤ -4.2
25 | A16C A66U A122C U139A A142U | ≤ -4.2
26 | A12G A91U C105G A106U | -4.11
27 | U15G C95U U104G U144A | -0.599
28 | C14G A39U C57G | -4.06
29 | A12G U15A U55G C87G C99G C114A A119U | ≤ -4.2
30 | A66C C103G C108A G117A | ≤ -4.2
31 | G34C C75A G94A C108G U130A | ≤ -4.2
32 | C99U A107U | -3.88
33 | C8A C27U C76U | ≤ -4.2
34 | C51U G58A G92C G136A U148C | -3.3
35 | C14U G92C G136A | -2.51
36 | G62C G81A A91U A113U C125U | ≤ -4.2
37 | G81C C87A C99G | ≤ -4.2
38 | A29U A64C C85G | ≤ -4.2
39 | A12G A89C C96G | -1.66
40 | A12U C14U A17U G59A C93U A122U G143C | ≤ -4.2
41 | G42C C51U C103G | ≤ -4.2
42 | U45G C85G C93U | ≤ -4.2

Row | Variant | polymerase ribozyme fitness (log ratio)
43 | G11C U33G C38U A47C A49C G92A A97G U111G C118U G133U | -4.17
44 | C35U U61A G86A C125G G141U | ≤ -4.2
45 | U6A G86U | -1.41
46 | A73G G143A | -0.82
47 | A66G G83C U111G | ≤ -4.2
48 | U104G A142G G152U | -3.73
49 | A40G G92U C108U G124A G128U | ≤ -4.2
50 | A26C C63U C85A A120U | -3.53
51 | C75U A98G G112C A122U | ≤ -4.2
52 | A22C C96A A97U U101C | -1.53
53 | G84A A97U U146C | -0.418
54 | A16C A41C C57G G59C U135A | -3.85
55 | G25U U56A G84U C95A C96U A119C G141U U148C C149A | ≤ -4.2
56 | U13G A21U A22C U82G G92U A98C C116U G136A | -4.02
57 | A19C U56A U104A A119U | -0.197
58 | C18G C35A C76U G83C G84U G88A G141U | ≤ -4.2
59 | G80U C114U U144C | -3.95
60 | U13C C57A G58A A66G U82G C116U | ≤ -4.2
61 | G83C G117A | 0.556
62 | G58U G86A C87A | ≤ -4.2
63 | A98U U127G | -3.18

Row | Variant | polymerase ribozyme fitness (log ratio)
64 | G86U G133A | ≤ -4.2
65 | G58C G59A C85U G133C | -1.29
66 | A3U C99U | -0.307
67 | C8G C96U | -3.47
68 | A49U G50A | -0.047
69 | C10G A20C C36A U53A U134A A142U | ≤ -4.2
70 | A26C C87U | -1.69
71 | G25C A41C A47C G83U A89U A121C C125G A142C C149G A150U G152A | ≤ -4.2
72 | C14G C35G U82G G92A C96A G100A C116G A120G G141A U144A | ≤ -4.2
73 | G81A A97G C125U | -0.572
74 | G58C A64C C69G C85U A110U U134G | ≤ -4.2
75 | A40C U55G G59C C75A U82G C96G U111G U148A A150C | ≤ -4.2
76 | A52U U53A C57A G81U G83C C103G G126A | ≤ -4.2
77 | U31C A41C A91C C95G U139A G143C | ≤ -4.2
78 | A49G C85U G117U U135C G143C | -4.06
79 | A28G A39U U53A G71A C93A | ≤ -4.2
80 | A40U U109A | -1.86
81 | A30C A52G A106C U146C | ≤ -4.2
82 | G83C C96A A150C | -3.75
83 | A3U G42U G48C C75G G86A C108A | ≤ -4.2
84 | G83C G128A | -3.88
